Measured values published in patent US20140037624A1 (Genentech, published 2014).

What was measured:
[1] = target: T1, cynomolgus monkey FGFR4 (SPR of FIG. 2B, construct not stated) (cynomolgus monkey); assay: surface plasmon resonance (table row 'Cynomolgus', column 'Kd (nM)')
T1 construct: also called cynomolgus FGFR4

[2] = target: T2, cynomolgus FGFR4-Fc chimeric protein (cynomolgus monkey); assay: solid phase binding assay, LD1 on immobilized cFGFR4-Fc, OD 450 nm
T2 construct: also called cFGFR4

[3] = target: T3, mouse complement C3 (ca. 37 kDa fragment, C3d, from mouse plasma) (mouse, UniProt P01027 1002-1303, limits assumed); assay: immunoprecipitation from NCR nude mouse plasma, SDS-PAGE
T3 construct: Native protein of plasma/serum, pulled down as a ca. 37 kDa band; also called mouse C3; mouse C3d

[4] = target: human FGFR4-FGFR1 chimeric construct on BaF3 cells (human, UniProt P11362 398-820, limits assumed); assay: cell-based or functional assay
[5] = target: T4, human FGFR4 (recombinant, construct not stated; SPR, FGFR4 ELISA, receptor-binding assay) (human, UniProt P22455 22-369, limits assumed); assay: SPR (BIAcore-2000), antibody immobilized, human FGFR4 as analyte
T4 construct: Whole exemplary entry named
T4 sequence: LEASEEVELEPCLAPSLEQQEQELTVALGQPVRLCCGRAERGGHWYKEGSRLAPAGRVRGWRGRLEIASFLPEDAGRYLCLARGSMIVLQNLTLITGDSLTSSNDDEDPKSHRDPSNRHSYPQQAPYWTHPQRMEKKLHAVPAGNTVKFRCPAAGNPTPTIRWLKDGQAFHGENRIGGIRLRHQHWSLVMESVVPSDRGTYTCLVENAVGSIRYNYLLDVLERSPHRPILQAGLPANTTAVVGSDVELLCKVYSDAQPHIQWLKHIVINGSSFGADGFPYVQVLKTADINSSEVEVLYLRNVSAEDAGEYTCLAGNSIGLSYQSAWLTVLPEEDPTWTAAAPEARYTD
Protocol: (§1) Affinity determinations were performed by surface plasmon resonance using a BIAcore™-2000. Approximately 50 RU of hLD1.vB IgG was immobilized in 10 mM Sodium Acetate pH 4.8 on a CM5 sensor chip and serial 2-fold dilutions of the FGFR4 (0.48-1000 nM) in PBST were injected at a flow rate of 30 μl/min. Each sample was analyzed with 4-minute association and 10-minute dissociation. After each injection the chip was regenerated using 10 mM glycine pH 1.7. Binding response was corrected by subtracting the RU from a flow cell with an irrelevant IgG immobilized at similar density. A 1:1 Languir model of simultaneous fitting of kon and koff was used for kinetics analysis.
TABLE 3 Binding Kinetics of anti-FGFR4 antibody variants. The association and dissociation rates of human FGFR4 binding to immobilized antibody variants were measured using surface plasmon resonance.

[6] = target: T4, human FGFR4 (recombinant, construct not …); assay: surface plasmon resonance, compared with chLD1
Protocol: as §1
As a first step in the humanization of LD1, the variable light and heavy domains of chLD1 were aligned with the human kappa I (huKI) and human VH subgroup III (huIII) variable domain frameworks used in trastuzumab (FIG. 10). Hypervariable regions from chLD1 were grafted into these human variable frameworks to generate a direct CDR-graft (hLD1.vA)^{15, 16}. […] Substitution of mouse sequence at various vernier positions in both the variable light and heavy domains was explored as a means to improve binding and led to the identification of three important mouse vernier positions in the LC: P44F, L46I and Y49S.

[7] = target: T4, human FGFR4 (recombinant, construct not …); assay: FGFR4 ELISA (immobilized FGFR4), O.D. 450 nm against IgG concentration

T3 sequence (P01027 1002-1303 limits assumed): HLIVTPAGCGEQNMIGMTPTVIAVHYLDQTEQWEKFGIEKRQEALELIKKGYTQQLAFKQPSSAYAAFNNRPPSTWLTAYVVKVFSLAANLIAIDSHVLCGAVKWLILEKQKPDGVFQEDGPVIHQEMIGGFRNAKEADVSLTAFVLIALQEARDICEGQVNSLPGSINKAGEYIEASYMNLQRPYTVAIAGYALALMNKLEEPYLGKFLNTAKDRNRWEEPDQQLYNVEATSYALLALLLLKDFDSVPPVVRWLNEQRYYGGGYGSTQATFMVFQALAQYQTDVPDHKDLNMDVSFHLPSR

Row | Binder | Kd [1] [pM] | EC50 (read off the curve) [2] [µg/mL] | binding result [3] | IC50 of inhibition of proliferation of BaF3/FGFR4/R1 cells in the presence of 5 nM FGF1 [4] [pM] | Kd [5] [pM] | koff [5] [s⁻¹] | fold weaker binding against chLD1 [6] [fold] | EC50 (read off the curve) [7] [µg/mL]
1 | chimeric LD1 (murine LD1 variable domains with human kappa and human IgG1 constant domains) (antibody, V domains shown, also called chLD1; ChLD1) VH: EVQLQQPGAVLVRPGTSVKLSCKASGYTFTNHWMNWVKQRPGQGLEWIGMIHPSDSETTLDQKFKDKATLTVDKSSSTAYMQLNRPTSEDSAVYYCTRGDISLFDYWGQGTTVTVSS VL: DIQMTQTTSSLSASLGDRVTITCRTSQDISNFLNWYQQKPDGTFKILISYTSRLHSGVPSRFSGSGSGTDYSLTISTLEQEDFATYFCQQGNALPYTFGGGTKLEIE | 800 | ~0.04 | no binding | 17400 | – | – | – | –
2 | hLD1.vB (humanized LD1 with light chain P44F, L46I, Y49S) (antibody, V domains shown) VH: EVQLVESGGGLVQPGGSLRLSCAASGYTFTNHWMNWVRQAPGKGLEWVGMIHPSDSETTLDQKFKDRFTISADTSKNTAYLQMNSLRAEDTAVYYCTRGDISLFDYWGQGTLVTVSS VL: DIQMTQSPSSLSASVGDRVTITCRTSQDISNFLNWYQQKPGKAFKILISYTSRLHSGVPSRFSGSGSGTDFTLTISSLQPEDFATYYCQQGNALPYTFGQGTKVEIK | – | – | – | – | 970 | 0.00028 | ~2 | ~4
3 | hLD1.v22 (humanized and affinity matured LD1) (antibody, V domains shown) VH: EVQLVESGGGLVQPGGSLRLSCAASGYTFTNHWMNWVRQAPGKGLEWVGMILPVDSETTLEQKFKDRFTISADTSKNTAYLQMNSLRAEDTAVYYCTRGDISLFDYWGQGTLVTVSS VL: DIQMTQSPSSLSASVGDRVTITCRTSQDISNFLNWYQQKPGKAFKILISYTSRLHSGVPSRFSGSGSGTDFTLTISSLQPEDFATYYCQQGNALPYTFGQGTKVEIKR | – | – | no binding | – | 43 | 3.9e-05 | – | –
